Laboratory results as given in patent US20230054956A1 (VANDERBILT UNIVERSITY, published 2023).
Changes are numbered by the printed parent chain.

T1: GII.4 Sydney 2012 virus-like particles (VLPs), based on strain AFV08795.1 (human norovirus GII.4 Sydney 2012, UniProt P54635 1-538, The particle is a multimeric assembly of VP1 with a little VP2 inside; one VP1 chain is given.)
T1 construct: VLP assembled from VP1 and VP2 in baculovirus/Sf9 cells; also called GII.4 VLPs
T1 chain: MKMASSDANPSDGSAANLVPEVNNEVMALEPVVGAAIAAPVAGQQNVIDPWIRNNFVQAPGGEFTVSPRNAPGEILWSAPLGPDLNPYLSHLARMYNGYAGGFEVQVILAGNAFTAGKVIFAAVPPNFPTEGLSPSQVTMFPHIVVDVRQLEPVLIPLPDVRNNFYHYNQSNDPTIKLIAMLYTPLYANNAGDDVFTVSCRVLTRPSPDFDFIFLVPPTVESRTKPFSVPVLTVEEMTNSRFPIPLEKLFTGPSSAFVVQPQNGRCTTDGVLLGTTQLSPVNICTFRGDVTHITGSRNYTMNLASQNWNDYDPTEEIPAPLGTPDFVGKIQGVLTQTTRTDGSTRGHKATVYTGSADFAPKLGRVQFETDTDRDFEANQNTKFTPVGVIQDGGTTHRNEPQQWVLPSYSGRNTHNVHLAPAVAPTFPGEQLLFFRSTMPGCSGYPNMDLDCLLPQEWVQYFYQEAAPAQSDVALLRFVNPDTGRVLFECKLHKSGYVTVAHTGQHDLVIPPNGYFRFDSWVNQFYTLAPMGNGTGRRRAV

B1: NORO-296A (antibody, V domains shown)
VH: QVQLVESGGGLVKPGGSLRLSCAASGFTFSEYYMSWVRQAPGKALEWVSYITSSFSSTSYADSVKGRFVISRDNAKNSLYLQMNSLRVEDTAVYYCARYGAEYGSRSFYFLDWGQGTLVTVSS
VL: QSVLTQPPSVSGAPEQRVTISCTGSSSNIGAGYDVHWYQVLPGIAPKLLIYDNNKRPSGVPDRFSGSKSGTSASLAITGLQAEDEADYYCQSYDSRLSSNVVFGGGTKLTVL
B2: NORO-278 (antibody, V domains shown)
VH: QVQLVESGGGVVQPGRSLRLSCAASGFTFSSYGMHWVRQAPGKGLEWVAVISYDGSNKYYADSVKGRFTISRDNSKNTLYLQMNSLRAEDTAVYYCAKVTIIAAADLLDYWGQGTLVTVSS
VL: B1 VL with E15G, V40Q, I44T, D52G, N54S, K55N, R96S, S99G, N100P
B3: NORO-315B (antibody, V domains shown)
VH: QVQLVESGGGLVKPGGSLRLSCVASGFTFSDYYMTWFRQTPGRGLEWLSYISAIGGYTEYADSVKSRFIISRDNGKKSLYLQMNSLRAEDSGVYYCAREDCHGTSCYSGDWGQGTLVTVSS
VL: QSVLTQPPSVSGAPGQRVTISCTGSSSNIGAGYDVHWYQQLPGTAPKLLIYHNTNRPSGVPDRFSGSKSGTSAYLTITGLQAEDEADYYCQSYDRSLSKSRVFSGGTKLTVL
B4: NORO-317 (antibody, V domains shown)
VH: QVQLVESGGGLVKPGGSLRLSCVASGFTFSDYYISWVRQAPGKGLEWVSYISAINSYTNYADSVRGRFTVSRDNAKKSVFLQMNSLRVDDTAVYYCARDVGGSVRYSSNSNKKSYNYFDPWGQGTLVTVSS
VL: SYELTQPPSVSVSPGQTATITCSGDVLSKEFAYWYQQKPGQAPVLVIYKDNERPSGIPERFSGSTSGTTVTLTISGVLAEDEAHYYCQSVDTRGTYKVFGGGTKLTVL
B5: NORO-202A.1 (antibody, V domains shown)
VH: QVQLVQSGAEVKKPGASVKVSCKASEYTFTGYYLQWVRQAPGHGLEWMGWINPSGGTKYSQKFQGRVTMTRDTSITTVYMELSRLRSDDTAVYYCARDLLRNWGDHDAFDVWGQGTMVTVSS
VL: QSVLTQPPSASETPGQGVTISCSGSSSNIGSNFVCWYQQVPGTAPKLLIYKNNQRPSGVPDRFSGSKSGTSASLAISGLRSEDEADYYCSAWDDSLSGPVFGGGTKLTVL
B6: NORO-303 (antibody, V domains shown)
VH: QVQLVESGGGVVQPGRSLRLSCAASGFIFSSYAMHWVRQAPGKGLEWVAVMSYDGNNKYYADSVKGRFTISRDNSKNTLFLQMNSLRPEDTAVYYCARDCRVGWVFTYGMDVWGQGTLVTVSS
VL: QSALTQPPSASGSPGQSVTISCTGTSSDVGGYNYVSWYQQHPGKAPKLMMYEISKRPSGVPIRFSGSKSGNTASLTVSGLQAEDEADYYCSSYAGTYNCVVFGGGTKLTVL
B7: NORO-123 (antibody, V domains shown)
VH: QVQLVESGGGVVQPGRSLRLSCSTSGFTFSQYPMHWVRQAPGKGLEWVALISYDGMNKYYADSVRGRFTISRDNSENTQYLQMNSLRGDDTAVYYCARVTGDCTGNRCSYWAYYYYGLDVWGQGTLVTVSS
VL: QSALTQPPSASGSPGQSVTISCTGTSSDVGGYKYVSWYQQHPGKAPKLMIYEVTRRPSGVPDRFSGSKSGNTAFLTVSGLQAEDEADYYCGSYAGSTTSGYVFGTGTKVIVL
B8: NORO-251A (antibody, V domains shown)
VH: QVQLVESGGGVVQPGRSLRLSCAASGFTFRSYGIHWVRQAPGKGLEWVALISYDGSSKYYADSVKGRFTISRDNSKNTLYLQMNSLRSEDTAVYYCAKVRLTSYSIGWFSFDYWGQGTLVTVSS
VL: QSVLTQPPSVSAAPGQKVTISCSGSSSNIANYYVSWYQQLPGRAPKLLIYDNNKRPSGIPDRISGSKSGTSATLGITGLQTGDEADYYCGTWDTSLSAWVFGGGTKLTVL
B9: NORO-313.1 (antibody, V domains shown)
VH: QVQLVESGGGLVKPGGSLRLSCAASGFTFSDFYMSWIRQAPGKGLEWVGYISSIAGATNYADSVKGRFTISRDSSKRSLYLQMNSLRVEDTAVYYCARMGRLELERRPHYYYPLDVWGQGTLVTVSS
VL: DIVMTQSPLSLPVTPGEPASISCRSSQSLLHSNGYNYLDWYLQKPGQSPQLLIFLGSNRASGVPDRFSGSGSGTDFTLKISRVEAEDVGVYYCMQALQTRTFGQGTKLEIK
B10: NORO-312A (antibody, V domains shown)
VH: QVQLVESGGALVKPGESLRLSCAASGFTFSDSYMSWIRQAPGKGLEWVAYISGIMSSTNYADSVKGRFTISRDNGKNSVYLQMNNLRAEDTAVYYCARDAQYCSGGRCYLVFDYWGQGTLVTVSS
VL: QSVLTQPPSVSGAPGQRVTISCTGSSSNIGAGYEVHWYQQLPGAAPKLIIYGNNNRPSGVPDRFSGSKSGTSASLAITGLQADDEADYYCQSYDNRLRVFGGGTKLTVL
B11: NORO-273A (antibody, V domains shown)
VH: QVQLVQSGAEVKKPGASVKISCKASGYDFTSFPMHWVRLGPGQRLEWMGWISAANGNTKYSQKFQDRFTITRDTSASIVHMELSSLRSEDTAVYYCARGGYSSGLYRYSNYYYGMTVWGQGTLVTVSS
VL: DIVMTQTPLSLSVTPGQPASISCKSSESLLHNDRKTYLFWYLQKPGQPPQLLIFQVSNRFSGVPDRFSGSGSGTDFTLRISRVEAEDVGIYYCLQTTQLPLTFGGGTKVEIK
B12: NORO-310A (antibody, V domains shown)
VH: EVQLVESGGGLVRPGESLRLSCVASGFSVSDNYMSWVRQAPGKGLQWVSVIYSGGTTFYTDSVKGRFTISRDKSKNTLFLQMNSLRAEDTAVYFCTRDPSQYYDSRGHYYQTFTPSFDSWGQGTLVTVSS
VL: DIQMTQSPSVMSASVGDRVTITCRASQDISDYLAWFQQKPGKVPKRLIYAASSLQNGVPSRFSGSGSGTEFTLTISSLQPEDFATYYCLQHDTYPLTFGGGTKVEIK
B13: NORO-256A (antibody, V domains shown)
VH: QVQLVESGGGVVQAGRSLRLSCAASGFTFRSYGMHWVRQAPGKGLEWVAIISYDGGSKYYADSVKGRFTISRDNSKNTLYLQMNSLRVEDTALYYCAKDFLRVYSYGWHSFDIWGLGTLVTVSS
VL: QSVLTQPPSVSAAPGQRVTISCSGSSSNIGTYYVSWYQHLPGTAPKLLIYDNDKRPSGIPDRFSASKSGTSATLDIAGLQTGDEADYYCGTWDLSLTAGWVFGGGTKLTVL
B14: NORO-279A (antibody, V domains shown)
VH: QVQLVESGGGVVQPGRSLRLSCAASGFTFTKYGMHWVRQAPGKGLEWVAFIAYDGSVKYYGDSAKGRFAISRDNPKNTVYLQMNSLRAEDTAVYYCAKVEIHYYSNSLLGMDVWGQGTLVTVSS
VL: QSVLTQPPSASGTPGQRVTISCSGGNSNIGISYVYWYQHLPGTAPKLLISKNNLRPSGVPDRFSASKSGTSASLAISGLRSEDEAEYYCATLDINMTWVFGGGTKLTVL
B15: NORO-263 (antibody, V domains shown)
VH: QVQLVESGGGLVKPGGSLRLSCAASGFTLSDYYMSWIRQAPGKGLEWVAYISSSHTSTYYRDSVKGRFTISRDSAKKSLYLQMNSLRVEDTAIYYCARDWVGGRSAYSDHWGQGTLVTVSS
VL: SYELTQPPSVSVSPGQTARITCSGDALPRRPAFWYQQKSGQAPVLVMYDDSKRPSGIPERFSGSSSGTVATLTISGAQVEDEADYHCYSTDSSGKERVFGGGTKLTVL
B16: NORO-250B (antibody, V domains shown)
VH: QVQLVESGGGLVKPGGSLTLSCAASGFTFSDYYMNWIRQAPGKRLEWVSYISGIMSSTNYADSVKGRFTISRDTAKKSVYLQMNSLRAEDTAVYYCARATSQGATSYYFDSWGQGTLVTVSS
VL: QSVLTQPPSVSGAPGQRVTISCTGSSSNIGADYDVHWYQQLPGAAPRLLIYADINRPSGVPDRFSGSKSGTSASLAITGLQAEDEADYYCQSYDRSVSGSAVFGGGTKVTVL
B17: NORO-327A (antibody, V domains shown)
VH: QVQLEVSGGGLVKPGGSLRLSCAASGFTFTDYYMSWIRQAPGKGLEWVAYISGIMSSTKYADSVKGRFTISRDNGKNSVYLQMNSLTAEDTAVYYCARERVEPPSAVTDFWGQGTLVTVSS
VL: QSVLTQSPSVSGAPGQRVTISCTGTSSNIGAGYDVHWYQQFPGTAPKLLISHNTNRPSGVPDRFSGSKSGTSASLAITGLQAEDEADYYCQSFDSSLRGSRVFGGGTKLTVL
notes: human hybridoma mAb; IgG, lambda
B18: NORO-232A.2 (antibody, V domains shown)
VH: QVQLKQWGAGLLKSSETLSLTCAFNGNSFGAFYWSWIRLSPGKGLEWIGEVNYLGGADYNPSLKSRVTMSADTSKRQFSLSLKSVTAADTGVYFCARGRPHDYSPGSYSRPRRYYGLDVWGQGTTVTVSS
VL: EIVLTQSPATLSLSPGDSATLSCRASQAVSTTYLAWYQQTRGQAPRLLIHGTYTRAIGIPDKFSGTGSGTDFTLTISGLAPEDFAVYYCQQYSSSPYTFGQGTKIEIT
notes: human hybridoma mAb; IgA, kappa; in both panels
B19: NORO-246A (antibody, V domains shown)
VH: EVHLVESGGGLVKPGGSLRLSCAASGFTFSRYGMHWVRQAPGKGLEWVSSIVIRSDYKYYADSVKGRFTISRDNAKNSLYLQMNSLRADDTAVYYCARDLVEPGITPVGCDYWGRGTLVTVSS
VL: SNELTQAPSVSVSPGQTARITCFGDALANQYSYWYQRKPGQAPVLVIYKDSERPSGIPQRFSASNSGTTVTLTITGVQAEDEADYFCQSADSTGIYKVFGGGTKLTVL
notes: as for B17

Biological target: GII.4 Sydney 2012 virus-like particles (VLPs), based on strain AFV08795.1 (human norovirus GII.4 Sydney 2012, UniProt P54635 1-538, The particle is a multimeric assembly of VP1 with a little VP2 inside; one VP1 chain is given.)
Assay: indirect ELISA, VLP coated

For B1, which EC50 is on record?
Its EC50 is 0.6 mg/L.

B2 was tested. Which EC50 did it give?
The EC50 was 4 mg/L.

For B3, which EC50 is on record?
Its EC50 is 0.7 mg/L.

With B4 as the binder, how does the EC50 read?
Its EC50 is 0.4 mg/L.

B5 was tested. Which EC50 did it give?
Its EC50 is 0.4 mg/L.

B6 was tested. Which EC50 did it give?
Its EC50 is 0.5 mg/L.

With B7 as the binder, how does the EC50 read?
Its EC50 is 5.4 mg/L.

With B8 as the binder, how does the EC50 read?
The EC50 was 0.9 mg/L.

Which EC50 does the source give for B9 here?
The EC50 was 0.1 mg/L.

B10 was tested. Which EC50 did it give?
Its EC50 is 0.4 mg/L.

B11 was tested. Which EC50 did it give?
The EC50 was 0.2 mg/L.

Which EC50 does the source give for B12 here?
The EC50 was 6.2 mg/L.

How did the EC50 turn out when B13 was run?
Its EC50 is 0.9 mg/L.

How did the EC50 turn out when B14 was run?
Its EC50 is 0.2 mg/L.

For B15, which EC50 is on record?
Its EC50 is 0.6 mg/L.

With B16 as the binder, how does the EC50 read?
Its EC50 is 0.2 mg/L.

Biological target: T1, GII.4 Sydney 2012 virus-like particles …
Assay: indirect ELISA, VLP coated

How did the EC50 turn out when B17 was run?
Its EC50 is 0.6 mg/L.

For B18, which EC50 is on record?
The EC50 was 0.3 mg/L.

For B19, which EC50 is on record?
Its EC50 is 0.2 mg/L.
